# According to patent US10385327B2, “Enhanced E. coli for the production of fatty acids and method of producing the same” (University of Puerto Rico, priority 2012, dated 2019):
# B1: DH1-DH2-UMA (His-tagged dehydratase tetradomain fragment, I1096-N-Term, of pfaC PUFA synthase from Photobacterium profundum; pfaC SEQ.ID17, GenBank AF409100.1; … (protein)
# chain: IRKPCIWDYEDLVEYAEGDIANVFGPDYAVIDNYSRRVRLPTTDYLLVSRVTKLDATMLEYKPSTMTTEYDIPVDAPYLVDGQIPWAVAVESGQCDLMLISYLGIDFENKGERVYRLLDCTLTFLGDLPRGGDTLRYDISINNFARNGDTLLFFFSYECFVGDKMVLKMDNGCAGFFTDEELSDGKGVIRTEDEIKSRNLAVKQRFNPLLHCQKTQFDYQTLHNLLDANIAGCFGESHISDRHQPSLCFSSDKFMMIEQISHVDPQGGTWGLGLIEGHKQLEADHWYFPCHFKDDSVMAGSLMAEGCGQLLQFFMMYLGMHTQVENGRFQPLENAPQQVRCRGQVLPQSAVLTYRMEVTEIGLSPRPYAKANIDILLDGKVVVDFQNLGVMIKEESECTRYLGSSDFDSASLASSSYVAESAPAQADVITPVEAPISQQASANAPLMAQIPDLNTAPNKGVIPLQHIEAPIVPDYQNRTPDTVPFTPYHMFEFATGDIEKCFGPDFSIYRGMIPPRTPCGDLQLTTRVIEVNGTRGDFKTPSSCIAEYEVPENAWYFDENSHSSLMPYSVLMEISLQPNGFISGYMGTTLGFPGLELFFRNLDGSGKMLRNVDLRGKTIVNDSRLLSTVMMGTNIVQSFSFELSTDGVPFYEGTAVFGYFKGAALKDQLGLDNGQVTYPWHVNNNRTPDVSINLLDKESRYFNAPLSATGEAQPHYQLAGGRLNFIDKVDITSDGGKAGLGYLYAERTIDPSDWFFQFHFHQDPVMPGSLGVEAIIELMQTYALNKDLGAGFRSPKFGQIQSEVKWKYRGQINPLNKQMSLDVHITAIKDEDGKRIIVGDANLSKDGLRIYEVKDIAICIEEA
# Substrate: C/C=C/C(=O)SCCNC(=O)CCNC(=O)[C@H](O)C(C)(C)COP(=O)(O)OP(=O)(O)OC[C@H]1O[C@@H](n2cnc3c(N)ncnc32)[C@H](O)[C@@H]1OP(=O)(O)O
# Assay: Kinetic assay of dehydratase activity: hydration of crotonyl-CoA monitored at 235 nm, fit to Michaelis-Menten equation
# Assay type: biochemical, Photobacterium profundum
# Conditions: other: crotonyl-CoA, hydration reaction, substrate 0-600 μM, 25 mM Tris, 150 mM NaCl, 10% glycerol, pH 8.0
# Method: For the cloning of fragments into pET200TOPO SEQ.ID15, the amplified DNA was gel purified using a Gel Extraction Kit and incubated with pET200TOPO. The resulting clones were selected in LB-agar containing kanamycin (100 μg/mL). All resistant clones were introduced into E. coli strain SEQ.ID16 BL21-DE3-Codon Plus-RIL and grown in liquid LB at 37° C. until the OD600=0.4 at which time the temperature was decreased to 22° C.° until the OD600=0.6 at which time protein expression was induced with 1 mM IPTG. […]
# Dehydratase activity was measured in a hydration assay by using Crotonyl-CoA and Crotonyl-NAC as substrates. […] The values for the absorbance slope (given in mAU/min) were converted to units of μmole of product per minute by using the following equation: μmole of product/min=[Slope/ε×b]×Voltotal (Eq1)
# in which the slope is given by the instrument in units of milliabsorbance (mAU) per minute, b is the path length measured to be 0.89 cm for a Voltotal=200 μl in our 96-well plates. The ε is the molar extinction coefficient resulting from the loss of a double bond as defined by the difference in absorbance between crotonyl-CoA and β-hydroxybutyryl-CoA at a particular wavelength. The extinction coefficient was calculated to be ε=969.9 M^−1 cm^−1 for the reaction monitored at 260 nm and ε=790.7 M^−1 cm^−1 for the reaction monitored at 235 nm. […]
protein,measurement,value
B1,Km,156 µM
same,Vmax,0.0001 μmol product/min
